This note sets out measurements from the supplement of paper PMC9112550, “Optimization of the antimicrobial peptide Bac7 by deep mutational scanning” (BMC Biology, 2022).
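Further: peptides expressed intracellularly from a pBAD plasmid library in pooled LB shake-flask culture, induced with 0.3% L-arabinose, DNA abundance read by NGS, three biological replicates, DESeq2 with apeglm shrinkage.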

This series relates to Escherichia coli TOP10. The series can be described thus: shrunken log2 fold change of peptide-encoding DNA abundance (4.5 h post-induction vs induction); higher = less antimicrobial activity (less host growth inhibition). The settings on record: time post-induction: 4.5 h; library: site-saturation at positions 5, 18, 19, 20.
With RRIRSRPPRLPRPRPRPPEEPRP, the “shrunken log2 fold change” value was -0.0451.

With RRIRYRPPRLPRPRPRPLRAPRP, the “shrunken log2 fold change” value turned out to be 0.669.

For RRIRERPPRLPRPRPRPHPAPRP, the “shrunken log2 fold change” value worked out at 0.039.

Turning to RRIRGRPPRLPRPRPRPDHTPRP, the “shrunken log2 fold change” value is 0.0269.

For RRIRNRPPRLPRPRPRPCIIPRP, the “shrunken log2 fold change” value was -0.0176.

Take RRIRMRPPRLPRPRPRPADHPRP: the “shrunken log2 fold change” value is 0.173.

On to RRIRFRPPRLPRPRPRPHGVPRP, for which the “shrunken log2 fold change” value is -0.0563.

For the sequence RRIRVRPPRLPRPRPRPYQWPRP, the “shrunken log2 fold change” value is -0.175.

Consider RRIRPRPPRLPRPRPRPHIHPRP, for which the “shrunken log2 fold change” value is -0.82.

Turning to RRIRMRPPRLPRPRPRPHVYPRP, the “shrunken log2 fold change” value is -0.207.

Take RRIRERPPRLPRPRPRPRKAPRP: the “shrunken log2 fold change” value worked out at 0.444.

As for RRIRFRPPRLPRPRPRPKVGPRP, the “shrunken log2 fold change” value was -0.01.

RRIRQRPPRLPRPRPRPTIAPRP: the “shrunken log2 fold change” value was found to be 0.0737.

For RRIRLRPPRLPRPRPRPVPGPRP, the “shrunken log2 fold change” value turned out to be 0.113.

For RRIRMRPPRLPRPRPRPDKYPRP, the “shrunken log2 fold change” value is -0.212.

Regarding RRIRWRPPRLPRPRPRPNENPRP, the “shrunken log2 fold change” value was -0.0342.

On to RRIRNRPPRLPRPRPRPKMRPRP, for which the “shrunken log2 fold change” value came to 0.313.

With RRIRDRPPRLPRPRPRPDHVPRP, the “shrunken log2 fold change” value was -0.012.

Regarding RRIRWRPPRLPRPRPRPHMFPRP, the “shrunken log2 fold change” value is -0.0668.

Consider RRIRTRPPRLPRPRPRPVWSPRP, for which the “shrunken log2 fold change” value was -0.00993.

In the case of RRIRHRPPRLPRPRPRPFVPPRP, the “shrunken log2 fold change” value was -0.455.

For the sequence RRIRFRPPRLPRPRPRPSEKPRP, the “shrunken log2 fold change” value came to 0.0358.

Take RRIRYRPPRLPRPRPRPPLSPRP: the “shrunken log2 fold change” value is -0.283.

RRIRFRPPRLPRPRPRPDRIPRP: the “shrunken log2 fold change” value was 0.0156.

Take RRIRHRPPRLPRPRPRPKHNPRP: the “shrunken log2 fold change” value came out at 0.196.

RRIRTRPPRLPRPRPRPNVSPRP: the “shrunken log2 fold change” value is -0.0389.

RRIRMRPPRLPRPRPRPTYFPRP: the “shrunken log2 fold change” value is -0.0299.

Regarding RRIRARPPRLPRPRPRPLERPRP, the “shrunken log2 fold change” value was -0.0328.

RRIRDRPPRLPRPRPRPIVQPRP: the “shrunken log2 fold change” value was -0.267.

For the sequence RRIRHRPPRLPRPRPRPEPVPRP, the “shrunken log2 fold change” value stood at 0.0556.

RRIRMRPPRLPRPRPRPNPTPRP: the “shrunken log2 fold change” value stood at 0.849.

As for RRIRFRPPRLPRPRPRPMCHPRP, the “shrunken log2 fold change” value was -0.325.

For RRIRIRPPRLPRPRPRPYHFPRP, the “shrunken log2 fold change” value was -0.248.

Turning to RRIRRRPPRLPRPRPRPPKMPRP, the “shrunken log2 fold change” value is 0.286.

On to RRIRPRPPRLPRPRPRPWWMPRP, for which the “shrunken log2 fold change” value turned out to be 0.0483.

In the case of RRIRMRPPRLPRPRPRPFNIPRP, the “shrunken log2 fold change” value was -0.3.

In the case of RRIRARPPRLPRPRPRPKWTPRP, the “shrunken log2 fold change” value was -0.00127.

As to RRIRVRPPRLPRPRPRPDEKPRP, the “shrunken log2 fold change” value turned out to be 0.11.

In the case of RRIRGRPPRLPRPRPRPDGLPRP, the “shrunken log2 fold change” value was 0.053.

With RRIRARPPRLPRPRPRPQENPRP, the “shrunken log2 fold change” value is 0.394.

For RRIRERPPRLPRPRPRPQMIPRP, the “shrunken log2 fold change” value was determined as 0.132.

As for RRIRTRPPRLPRPRPRPIYGPRP, the “shrunken log2 fold change” value is -0.0121.

For the sequence RRIRDRPPRLPRPRPRPQVVPRP, the “shrunken log2 fold change” value is 0.0572.

In the case of RRIRYRPPRLPRPRPRPYYYPRP, the “shrunken log2 fold change” value is -0.476.

For RRIRDRPPRLPRPRPRPYFIPRP, the “shrunken log2 fold change” value is -0.324.

Regarding RRIRWRPPRLPRPRPRPDECPRP, the “shrunken log2 fold change” value was -0.012.

With RRIRCRPPRLPRPRPRPLYSPRP, the “shrunken log2 fold change” value is -0.672.

RRIRGRPPRLPRPRPRPLKPPRP: the “shrunken log2 fold change” value was found to be 0.609.

In the case of RRIRARPPRLPRPRPRPWIPPRP, the “shrunken log2 fold change” value was -0.161.

Take RRIRNRPPRLPRPRPRPNQSPRP: the “shrunken log2 fold change” value was -0.157.

For the sequence RRIRIRPPRLPRPRPRPHSFPRP, the “shrunken log2 fold change” value was -0.643.

As for RRIRNRPPRLPRPRPRPTAFPRP, the “shrunken log2 fold change” value is 0.00576.

As for RRIRERPPRLPRPRPRPIDEPRP, the “shrunken log2 fold change” value came out at 0.0844.

On to RRIRGRPPRLPRPRPRPKWNPRP, for which the “shrunken log2 fold change” value was determined as 0.581.

Regarding RRIRARPPRLPRPRPRPYHTPRP, the “shrunken log2 fold change” value is -0.407.

As to RRIRRRPPRLPRPRPRPVADPRP, the “shrunken log2 fold change” value was 0.228.

In the case of RRIRPRPPRLPRPRPRPMAKPRP, the “shrunken log2 fold change” value was found to be 0.646.

In the case of RRIRPRPPRLPRPRPRPTSWPRP, the “shrunken log2 fold change” value stood at 0.769.

As for RRIRSRPPRLPRPRPRPDCWPRP, the “shrunken log2 fold change” value worked out at 0.362.

As for RRIRQRPPRLPRPRPRPENKPRP, the “shrunken log2 fold change” value was -0.578.

For RRIRPRPPRLPRPRPRPMSMPRP, the “shrunken log2 fold change” value is -0.11.

As to RRIRKRPPRLPRPRPRPNGFPRP, the “shrunken log2 fold change” value was 0.49.

Take RRIRTRPPRLPRPRPRPCRWPRP: the “shrunken log2 fold change” value was -0.00822.

As for RRIRARPPRLPRPRPRPVWPPRP, the “shrunken log2 fold change” value amounted to 0.623.

Take RRIRKRPPRLPRPRPRPDFWPRP: the “shrunken log2 fold change” value was found to be 1.06.

For RRIRDRPPRLPRPRPRPLGIPRP, the “shrunken log2 fold change” value stood at 0.143.

RRIRNRPPRLPRPRPRPWSRPRP: the “shrunken log2 fold change” value was 0.14.

For RRIRRRPPRLPRPRPRPKSWPRP, the “shrunken log2 fold change” value amounted to 0.249.

Regarding RRIRMRPPRLPRPRPRPKTPPRP, the “shrunken log2 fold change” value came out at 3.35.

As to RRIRKRPPRLPRPRPRPRYDPRP, the “shrunken log2 fold change” value is -0.0842.

As for RRIRIRPPRLPRPRPRPASPPRP, the “shrunken log2 fold change” value was -0.0763.

With RRIRSRPPRLPRPRPRPCYYPRP, the “shrunken log2 fold change” value was -0.571.

Consider RRIRWRPPRLPRPRPRPKHDPRP, for which the “shrunken log2 fold change” value stood at 0.0868.

In the case of RRIRMRPPRLPRPRPRPPHGPRP, the “shrunken log2 fold change” value is 1.06.

For RRIRHRPPRLPRPRPRPDQDPRP, the “shrunken log2 fold change” value is -0.0366.

For the sequence RRIRARPPRLPRPRPRPEWNPRP, the “shrunken log2 fold change” value stood at 0.76.

With RRIRGRPPRLPRPRPRPYWHPRP, the “shrunken log2 fold change” value was -0.627.

With RRIRLRPPRLPRPRPRPGDHPRP, the “shrunken log2 fold change” value was -0.202.

Take RRIRHRPPRLPRPRPRPFTRPRP: the “shrunken log2 fold change” value was -0.132.

For the sequence RRIRGRPPRLPRPRPRPPPLPRP, the “shrunken log2 fold change” value turned out to be 1.16.

Regarding RRIRSRPPRLPRPRPRPEVYPRP, the “shrunken log2 fold change” value is 0.104.

Regarding RRIRDRPPRLPRPRPRPQSRPRP, the “shrunken log2 fold change” value is -0.123.

RRIRYRPPRLPRPRPRPCSGPRP: the “shrunken log2 fold change” value was -0.0198.

Consider RRIRVRPPRLPRPRPRPMTIPRP, for which the “shrunken log2 fold change” value is -0.435.

For RRIRGRPPRLPRPRPRPDRPPRP, the “shrunken log2 fold change” value is 0.376.

For the sequence RRIRFRPPRLPRPRPRPFWPPRP, the “shrunken log2 fold change” value is 0.234.

For RRIRWRPPRLPRPRPRPWIMPRP, the “shrunken log2 fold change” value is -0.0381.

Regarding RRIRYRPPRLPRPRPRPYFPPRP, the “shrunken log2 fold change” value was -0.702.

On to RRIRFRPPRLPRPRPRPCCVPRP, for which the “shrunken log2 fold change” value was -0.189.

RRIRPRPPRLPRPRPRPWWYPRP: the “shrunken log2 fold change” value is -0.121.

As for RRIRHRPPRLPRPRPRPADAPRP, the “shrunken log2 fold change” value was -0.0349.
